Test in all cases: cell-based or functional assay
One assay deals with TGF-β1 (UniProt P01137).
In a further assay the target is T1, TGF-β2 (UniProt P61812).
T1 sequence (looked up): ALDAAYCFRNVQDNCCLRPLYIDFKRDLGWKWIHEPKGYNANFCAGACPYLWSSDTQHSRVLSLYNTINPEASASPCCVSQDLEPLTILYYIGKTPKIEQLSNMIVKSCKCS

The target in another assay is TGF-β3 (UniProt P10600).
Chain of TGF-β3 (P10600 301-412 limits assumed): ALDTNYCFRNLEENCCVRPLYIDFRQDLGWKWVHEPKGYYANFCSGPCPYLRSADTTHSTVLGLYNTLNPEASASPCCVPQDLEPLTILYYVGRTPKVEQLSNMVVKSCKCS

Chain of TGF-β1 (P01137 279-390 limits assumed): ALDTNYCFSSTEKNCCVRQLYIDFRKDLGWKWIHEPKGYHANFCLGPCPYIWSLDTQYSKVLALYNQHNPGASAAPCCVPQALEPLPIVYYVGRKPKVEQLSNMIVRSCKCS

B1: T22d35-Fc fusion protein (TβRII-ECD doublet fused to the N-terminus of a human IgG2 Fc, hinge …) (Fc fusion)
chain: IPPHVQKSVNNDMIVTDNNGAVKFPQLCKFCDVRFSTCDNQKSCMSNCSITSICEKPQEVCVAVWRKNDENITLETVCHDPKLPYHDFILEDAASPKCIMKEKKKPGETFFMCSCSSDECNDNIIFSEEYNTSNPDIPPHVQKSVNNDMIVTDNNGAVKFPQLCKFCDVRFSTCDNQKSCMSNCSITSICEKPQEVCVAVWRKNDENITLETVCHDPKLPYHDFILEDAASPKCIMKEKKKPGETFFMCSCSSDECNDNIIFSEEYNTSNPDERKCCVECPPCPAPPVAGPSVFLFPPKPKDTLMISRTPEVTCVVVDVSHEDPEVQFNWYVDGVEVHNAKTKPREEQFNSTFRVVSVLTVVHQDWLNGKEYKCKVSNKGLPAPIEKTISKTKGQPREPQVYTLPPSREEMTKNQVSLTCLVKGFYPSDISVEWESNGQPENNYKTTPPMLDSDGSFFLYSKLTVDKSRWQQGNVFSCSVMHEALHNHYTQKSLSLSPG
In the case of B1, in the assay with TGF-β1, the IC50 (nM), neutralization of TGF-β1-induced IL-11 release by A549 cells was 0.00286 nM; the IC50 (nM), neutralization of TGF-β-induced IL-11 release by A549 cells worked out at 0.00335 nM; the fold better neutralization potency than T2m-Fc (A549 IL-11 release assay) is 615 fold; the fold better neutralization potency than T22d35 (A549 IL-11 release assay) came out at 970 fold. In the assay with TGF-β2, the IC50 (nM), neutralization of TGF-β-induced IL-11 release by A549 cells stood at 10.6 nM. For the same molecule, in the assay with TGF-β3, the IC50 (nM), neutralization of TGF-β-induced IL-11 release by A549 cells worked out at 0.00391 nM; the fold better neutralization potency than T2m-Fc (A549 IL-11 release assay) was found to be 24 fold; the fold better neutralization potency than T22d35 (A549 IL-11 release assay) stood at 240 fold.

B2: T22d35-Fc-IgG2-v2 (CC) (Fc fusion)
chain: IPPHVQKSVNNDMIVTDNNGAVKFPQLCKFCDVRFSTCDNQKSCMSNCSITSICEKPQEVCVAVWRKNDENITLETVCHDPKLPYHDFILEDAASPKCIMKEKKKPGETFFMCSCSSDECNDNIIFSEEYNTSNPDIPPHVQKSVNNDMIVTDNNGAVKFPQLCKFCDVRFSTCDNQKSCMSNCSITSICEKPQEVCVAVWRKNDENITLETVCHDPKLPYHDFILEDAASPKCIMKEKKKPGETFFMCSCSSDECNDNIIFSEEYNTSNPDVECPPCPAPPVAGPSVFLFPPKPKDTLMISRTPEVTCVVVDVSHEDPEVQFNWYVDGVEVHNAKTKPREEQFNSTFRVVSVLTVVHQDWLNGKEYKCKVSNKGLPAPIEKTISKTKGQPREPQVYTLPPSREEMTKNQVSLTCLVKGFYPSDISVEWESNGQPENNYKTTPPMLDSDGSFFLYSKLTVDKSRWQQGNVFSCSVMHEALHNHYTQKSLSLSPG
B2 showed an IC50 (nM), neutralization of TGF-β1-induced IL-11 release by A549 cells in the assay with TGF-β1 of 0.00278 nM.

The record behind these values is US20220204587A1.
